# T1: CD20 on CD20-positive human Burkitt's lymphoma Ramos cells (human, UniProt P11836 1-297)
# T1 construct: whole, on cells; also called B cell-specific differentiation antigen CD20
# T1 sequence (looked up): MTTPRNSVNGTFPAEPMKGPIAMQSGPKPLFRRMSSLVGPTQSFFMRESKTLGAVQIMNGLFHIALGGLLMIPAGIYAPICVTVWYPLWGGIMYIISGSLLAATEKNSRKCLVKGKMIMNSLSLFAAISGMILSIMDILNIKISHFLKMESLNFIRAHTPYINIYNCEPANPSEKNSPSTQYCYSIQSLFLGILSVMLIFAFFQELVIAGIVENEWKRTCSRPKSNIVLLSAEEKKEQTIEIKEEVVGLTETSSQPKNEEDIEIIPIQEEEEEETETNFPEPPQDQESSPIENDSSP
# T2: recombinant FcγRIIB extracellular domain-Gly-His6-GST (human, UniProt P31994 43-217)
# T2 construct: extracellular domain; Expressed in 293T cells, purified on Ni-NTA; also called FcγRIIB/Gly-His6-GST; not shown: GST amplified from pGEX-2TK
# T2 sequence: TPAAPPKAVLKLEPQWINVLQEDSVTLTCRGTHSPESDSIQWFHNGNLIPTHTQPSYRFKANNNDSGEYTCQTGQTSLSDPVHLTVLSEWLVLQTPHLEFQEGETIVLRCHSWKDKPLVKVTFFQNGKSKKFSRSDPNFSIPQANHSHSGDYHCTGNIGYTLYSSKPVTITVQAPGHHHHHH
# T3: recombinant FcγRIIA extracellular domain-Gly-His6-GST (human, UniProt P12318 34-217)
# T3 construct: extracellular domain; Expressed in 293T cells, purified on Ni-NTA; also called FcγRIIA/Gly-His6-GST; not shown: GST amplified from pGEX-2TK
# T3 sequence: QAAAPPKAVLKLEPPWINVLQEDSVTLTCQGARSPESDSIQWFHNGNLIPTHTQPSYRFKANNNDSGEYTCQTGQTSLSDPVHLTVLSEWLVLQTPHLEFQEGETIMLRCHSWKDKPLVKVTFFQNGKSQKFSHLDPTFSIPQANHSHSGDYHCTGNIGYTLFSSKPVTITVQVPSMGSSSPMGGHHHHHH
# B1: mouse/human chimeric anti-CD20 antibody, Fc monomer (M) (antibody)
# heavy: not shown
# light: QIVLSQSPAILSASPGEKVTMTCRASSSLSFMHWYQQKPGSSPKPWIYATSNLASGVPARFSGSGSGTSYSLTISRVEAEDAATYFCHQWSSNPLTFGAGTKLLETVAAPSVFIFPPSDEQLKSGTASVVCLLNNFYPREAKVQWKVDNALQSGNSQESVTEQDSKDSTYSLSSTLTLSKADYEKHKVYACEVTHQGLSSPVTKSFNRGEC
# notes: Variable regions of mouse 1F5, human IgG1/kappa constant regions; Produced in CHO DG44; also called Anti-CD20 HC Fc Monomer
# B2: modified anti-CD20 antibody, Fc dimer with three G4S spacers (D3) (antibody)
# heavy: not shown
# light: B1 light
# B3: modified anti-CD20 antibody, Fc dimer with no spacer (D0) (antibody)
# heavy: not shown
# light: B1 light
# B4: modified anti-CD20 antibody, Fc trimer with no spacer (T0) (antibody)
# heavy: not shown
# light: B1 light
# B5: modified anti-CD20 antibody, Fc trimer with one G4S spacer (T1) (antibody)
# heavy: not shown
# light: B1 light
# B6: modified anti-CD20 antibody, Fc trimer with three G4S spacers (T3) (antibody)
# heavy: not shown
# light: B1 light
# B7: modified anti-CD20 antibody, Fc trimer with two G4S spacers (T2) (antibody)
# heavy: not shown
# light: B1 light
# B8: modified anti-CD20 antibody, Fc dimer with two G4S spacers (D2) (antibody)
# heavy: not shown
# light: B1 light
# B9: modified anti-CD20 antibody, Fc dimer with one G4S spacer (D1) (antibody)
# heavy: not shown
# light: B1 light
# Molecular target: T1, CD20 on CD20-positive human Burkitt's …
# Assay: flow cytometry on CD20-positive Ramos cells, antibody 50 nM, FITC anti-human kappa
# Protocol: CD20-positive human Burkitt's lymphoma Ramos cells were cultured using RPMI1640 containing 10% heat-inactivated fetal bovine serum, 1 mM sodium pyruvate (Wako), 100 U/ml penicillin, and 100 μg/ml streptomycin at 37° C. under 5% CO₂. The Ramos cell culture solution was centrifuged at 600 g for five minutes. After the medium was removed, the cells were suspended in an appropriate volume of medium. After another centrifugation at 600 g for five minutes, the medium was removed. 5 ml of FACS buffer (PBS containing 0.1% BSA and 0.02% NaN₃) was added to suspend the cells, and this was left on ice and blocked for 30 minutes. The supernatant was removed after centrifugation at 600 g for five minutes, cells were suspended at 5×10⁶ cells/ml in FACS buffer, and 100 μl were aliquoted per 1.5-ml tube. […] The supernatants were removed, and cells were washed by adding 500 μl of FACS buffer. This process was repeated twice to completely remove the non-reacted antibodies. Cells were suspended in 100 μl of FACS buffer containing 20 μg/ml FITC-labeled goat anti-human Kappa chain antibody (Biosource International), and allowed to stand on ice in the dark for 30 minutes. Cells were washed with the method described above, suspended in 100 μl of FACS buffer, filtered through a mesh with a hole size of 59 μm, and transferred into FACS tubes. The CD20 binding activity of each antibody was analyzed by fluorescence measurement using FACScan (Becton Dickinson) (FIG. 8).
row,binding result,Binder
1,binds,B1
2,binds,B2
3,binds,B3
4,binds,B4

# Molecular target: T4, recombinant FcγRIA extracellular domain-Gly-His6-GST (human, UniProt P12314 16-292)
# T4 construct: extracellular domain; Residues from the XbaI junction between receptor and tag are not spelled out; also called FcγRIA/Gly-His6-GST; not shown: GST amplified from pGEX-2TK
# T4 sequence (P12314 other isoform, or with tags, fused parts or gaps): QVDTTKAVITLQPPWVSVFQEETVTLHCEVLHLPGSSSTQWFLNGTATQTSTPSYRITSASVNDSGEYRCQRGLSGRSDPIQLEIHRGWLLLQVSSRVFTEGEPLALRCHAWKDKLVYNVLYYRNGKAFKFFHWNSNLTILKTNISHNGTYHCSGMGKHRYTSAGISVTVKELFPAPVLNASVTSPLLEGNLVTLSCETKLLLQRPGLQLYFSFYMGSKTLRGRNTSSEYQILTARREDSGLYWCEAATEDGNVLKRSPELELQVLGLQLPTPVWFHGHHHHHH
# Assay: ELISA, plate-coated recombinant FcγRIA extracellular domain-Gly-His6-GST, HRP anti-human kappa
# Protocol: (§1) The prepared FcγR (FcγRIA, FcγRIIA, FcγRIIB, FcγRIIIA^Val, and FcγRIIIA^Phe) were adjusted to 4 μg/ml with PBS, aliquoted into 96-well plates at 50 μl per well, and allowed to stand at 4° C. overnight. Then the solutions were discarded and 180 μl of ELISA Assay buffer (0.5% BSA, 2 mM EDTA, 0.05% Tween20, 25 mM TBS (pH 7.4)) was added to each well. The plates were allowed to stand and blocked at 37° C. for 2 hours. The solutions were discarded, 50 μl of antibody solutions serially diluted with ELISA Assay buffer were added to each well and allowed to react at 37° C. for two hours. The antibody solutions were discarded and wells were washed three times with 150 μl of ELISA Assay buffer. 50 μl of ELISA Assay buffer containing 0.33 μg/ml HRP-labeled goat anti-human Kappa chain antibody was aliquoted into each well and allowed to stand at 37° C. for one hour. After the antibody solution was removed, wells were washed three times with 150 μl of ELISA Assay buffer. 50 μl of a substrate solution (sodium citrate buffer (pH 5.0) containing 0.4% o-phenylenediamine dihydrochloride and 0.003% H₂O₂) was aliquoted and allowed to stand at room temperature in the dark for ten minutes. Then measurements at A450 were carried out using a microplate reader (FIG. 9).
row,binding result,Binder
1,binds,B1
2,binds,B2
3,binds,B3
4,binds,B4

# Molecular target: T2, recombinant FcγRIIB extracellular …
# Assay: ELISA, plate-coated recombinant FcγRIIB; Ab50 = antibody concentration at 50% of maximal binding
# Protocol: as §1
row,EC50,Binder
1,~50 nM,B1
2,~0.5 nM,B5
3,~5 nM,B2
4,~0.5 nM,B6
5,~0.5 nM,B7

# Molecular target: T5, recombinant FcγRIIIA (Val^158 type) extracellular domain-Gly-His6-GST (human, UniProt P08637 17-208)
# T5 construct: extracellular domain; Valine at position 158 (printed once as 157V); The database entry may carry Phe at this position; also called type-V FcγRIIIA; FcγRIIIA(157V); not shown: GST amplified from pGEX-2TK
# T5 sequence (P08637 other isoform, or with tags, fused parts or gaps): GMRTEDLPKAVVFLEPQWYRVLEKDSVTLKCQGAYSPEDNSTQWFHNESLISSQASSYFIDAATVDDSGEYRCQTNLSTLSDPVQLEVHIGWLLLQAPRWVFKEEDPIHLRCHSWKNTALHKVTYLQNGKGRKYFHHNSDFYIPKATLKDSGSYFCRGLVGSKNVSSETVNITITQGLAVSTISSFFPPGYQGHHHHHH
# Assay: ELISA, plate-coated recombinant FcγRIIIA (Val158); Ab50 = antibody concentration at 50% of maximal binding
# Protocol: as §1
row,EC50,Binder
1,~30 nM,B1
2,~0.5 nM,B5
3,~2 nM,B2
4,~2 nM,B3
5,~30 nM,B8
6,~2 nM,B4
7,~0.5 nM,B6
8,~0.5 nM,B7
9,~30 nM,B9

# Molecular target: T3, recombinant FcγRIIA extracellular …
# Assay: ELISA, plate-coated recombinant FcγRIIA; Ab50 = antibody concentration at 50% of maximal binding; reference M
# Protocol: as §1
row,fold difference of Ab50 against M,Binder
1,~100 times,B5
2,~60 times,B2
3,~100 times,B4
4,~100 times,B6
5,~100 times,B7

# Source: patent publication US20090304715A1 (TOKYO UNIVERSITY OF SCIENCE, published 2009)
